Source: article PMC9638875 (EMBO Reports, 2022)

Molecular target: the molecule itself
Assay: SEC

B1: His6-eVP40 (Ebola virus matrix protein VP40) (natural protein)
chain: MRRVILPTAPPEYMEAIYPVRSNSTIARGGNSNTGFLTPESVNGDTPSNPLRPIADDTIDHASHTPGSVSSAFILEAMVNVISGPKVLMKQIPIWLPLGVADQKTYSFDSTTAAIMLASYTITHFGKATNPLVRVNRLGPGIPDHPLRLLRIGNQAFLQEFVLPPVQLPQYFTFDLTALKLITQPLPAATWTDDTPTGSNGALRPGISFHPKLRPILLPNKSGKKGNSADLTSPEKIQAIMTSLQDFKIVPIDPTKNIMGIEVPETLVHKLTGKKVTSKNGQPIIPVLLPKYIGLDPVAPGDLTMVITQDCDTCHSPASLPAVIEK
stoichiometry N: 2
